{"source": "paper PMC5639367", "about": "“Structure‐Guided Design of Peptides as Tools to Probe the Protein–Protein Interaction between Cullin‐2 and Elongin BC Substrate Adaptor in Cullin RING E3 Ubiquitin Ligases” (Chemmedchem, 2017)"}
{"target": "VBC ternary complex (pVHL, Elongin B, Elongin C) (UniProt P40337)", "assay": "BLI; biotinylated VBC (25 ug/mL) immobilised on Super Streptavidin biosensors, peptides titrated; Octet RED384; 25 °C; 20 mM HEPES pH 7.6, 100 mM NaCl, 1 mM DTT, 0.02 % Tween-20; reference tips subtracted; 1:1 model", "units": {"Kd": "mM"}}
{"substance": "peptide K (8-mer Cul2 peptide, Leu3 replaced by thioproline) (from UniProt Q13617 1-8)", "Kd": 2.2}
{"substance": "peptide D (8-mer Cul2 peptide, Leu3 replaced by tyrosine) (from UniProt Q13617 1-8)", "Kd": 7.4}
{"substance": "peptide I (8-mer Cul2 peptide, Leu3 replaced by cyclohexhylglycine) (from UniProt Q13617 1-8)", "Kd": 8.9}
{"substance": "peptide F (8-mer Cul2 peptide, Leu3 replaced by norvaline) (from UniProt Q13617 1-8)", "Kd": 1.9}
{"substance": "peptide G (8-mer Cul2 peptide, Leu3 replaced by tert-butylglycine) (from UniProt Q13617 1-8)", "Kd": 0.9}
{"substance": "peptide H (8-mer Cul2 peptide, Leu3 replaced by phenylglycine) (from UniProt Q13617 1-8)", "Kd": 2.1}
{"substance": "peptide C (8-mer Cul2 peptide, Leu3 replaced by phenylalanine) (from UniProt Q13617 1-8)", "Kd": 3.1}
